Data reported in patent publication US20230357348A1 (AstraZeneca / MedImmune, published 2023).
Starred links: 1 amine or outer side, 2 acyl side, 3 side chain; linkers in the order of their positions; H or OH if unused. Non-standard residues stand in square brackets, D forms with d. Groups on a side chain read outwards from the residue. No end group written: not given here. *: point of attachment. C20 diacid = O=C(O)CCCCCCCCCCCCCCCCCCC(=O)*; C18 diacid = O=C(O)CCCCCCCCCCCCCCCCC(=O)*; γGlu = O=C(O)[C@H](CCC(=O)[*:2])N[*:1]; αMeF = C[C@](N)(Cc1ccccc1)C(=O)O; (PEG)2 = polyethylene glycol 2; PEG4 = NCCOCCOCCOCCOCCC(=O)O; AEEA = NCCOCCOCC(=O)O; Aib = CC(C)(N)C(=O)O

B1: Peptide 246 (peptide)
peptide: H[Aib]HGS[αMeF]TSDVSK[αMeF]LDSRAAK([AEEA-AEEA-γGlu-γGlu-C20 diacid])D[αMeF]VESIANT-NH2
modifications: N-terminus assumed
SMILES: CC[C@H](C)[C@H](NC(=O)[C@H](CO)NC(=O)[C@H](CCC(=O)O)NC(=O)[C@@H](NC(=O)[C@](C)(Cc1ccccc1)NC(=O)[C@H](CC(=O)O)NC(=O)[C@H](CCCCNC(=O)COCCOCCNC(=O)COCCOCCNC(=O)CC[C@H](NC(=O)CC[C@H](NC(=O)CCCCCCCCCCCCCCCCCCC(=O)O)C(=O)O)C(=O)O)NC(=O)[C@H](C)NC(=O)[C@H](C)NC(=O)[C@H](CCCNC(=N)N)NC(=O)[C@H](CO)NC(=O)[C@H](CC(=O)O)NC(=O)[C@H](CC(C)C)NC(=O)[C@](C)(Cc1ccccc1)NC(=O)[C@H](CCCCN)NC(=O)[C@H](CO)NC(=O)[C@@H](NC(=O)[C@H](CC(=O)O)NC(=O)[C@H](CO)NC(=O)[C@@H](NC(=O)[C@](C)(Cc1ccccc1)NC(=O)[C@H](CO)NC(=O)CNC(=O)[C@H](Cc1c[nH]cn1)NC(=O)C(C)(C)NC(=O)[C@@H](N)Cc1c[nH]cn1)[C@@H](C)O)C(C)C)C(C)C)C(=O)N[C@@H](C)C(=O)N[C@@H](CC(N)=O)C(=O)N[C@H](C(N)=O)[C@@H](C)O
B2: Peptide 261 (peptide)
peptide: H[Aib]HGS[αMeF]TSDVSK[αMeF]LDSRAAK([PEG4-γGlu-C18 diacid])D[αMeF]VQ[Aib]IANT-NH2
modifications: N-terminus assumed
SMILES: CC[C@H](C)[C@H](NC(=O)C(C)(C)NC(=O)[C@H](CCC(N)=O)NC(=O)[C@@H](NC(=O)[C@](C)(Cc1ccccc1)NC(=O)[C@H](CC(=O)O)NC(=O)[C@H](CCCCNC(=O)CCOCCOCCOCCOCCNC(=O)CC[C@H](NC(=O)CCCCCCCCCCCCCCCCC(=O)O)C(=O)O)NC(=O)[C@H](C)NC(=O)[C@H](C)NC(=O)[C@H](CCCNC(=N)N)NC(=O)[C@H](CO)NC(=O)[C@H](CC(=O)O)NC(=O)[C@H](CC(C)C)NC(=O)[C@](C)(Cc1ccccc1)NC(=O)[C@H](CCCCN)NC(=O)[C@H](CO)NC(=O)[C@@H](NC(=O)[C@H](CC(=O)O)NC(=O)[C@H](CO)NC(=O)[C@@H](NC(=O)[C@](C)(Cc1ccccc1)NC(=O)[C@H](CO)NC(=O)CNC(=O)[C@H](Cc1c[nH]cn1)NC(=O)C(C)(C)NC(=O)[C@@H](N)Cc1c[nH]cn1)[C@@H](C)O)C(C)C)C(C)C)C(=O)N[C@@H](C)C(=O)N[C@@H](CC(N)=O)C(=O)N[C@H](C(N)=O)[C@@H](C)O
B3: Peptide 225 (peptide)
peptide: H[Aib]HGS[αMeF]TSDVSK[αMeF]LDSRAAK([AEEA-AEEA-γGlu-C18 diacid])D[αMeF]VQ[Aib]IANT-NH2
modifications: N-terminus assumed
SMILES: CC[C@H](C)[C@H](NC(=O)C(C)(C)NC(=O)[C@H](CCC(N)=O)NC(=O)[C@@H](NC(=O)[C@](C)(Cc1ccccc1)NC(=O)[C@H](CC(=O)O)NC(=O)[C@H](CCCCNC(=O)COCCOCCNC(=O)COCCOCCNC(=O)CC[C@H](NC(=O)CCCCCCCCCCCCCCCCC(=O)O)C(=O)O)NC(=O)[C@H](C)NC(=O)[C@H](C)NC(=O)[C@H](CCCNC(=N)N)NC(=O)[C@H](CO)NC(=O)[C@H](CC(=O)O)NC(=O)[C@H](CC(C)C)NC(=O)[C@](C)(Cc1ccccc1)NC(=O)[C@H](CCCCN)NC(=O)[C@H](CO)NC(=O)[C@@H](NC(=O)[C@H](CC(=O)O)NC(=O)[C@H](CO)NC(=O)[C@@H](NC(=O)[C@](C)(Cc1ccccc1)NC(=O)[C@H](CO)NC(=O)CNC(=O)[C@H](Cc1c[nH]cn1)NC(=O)C(C)(C)NC(=O)[C@@H](N)Cc1c[nH]cn1)[C@@H](C)O)C(C)C)C(C)C)C(=O)N[C@@H](C)C(=O)N[C@@H](CC(N)=O)C(=O)N[C@H](C(N)=O)[C@@H](C)O
B4: Peptide 215 (peptide)
peptide: H[Aib]HGS[αMeF]TSDVSK[αMeF]LDSRAAK([AEEA-AEEA-γGlu-C20 diacid])D[αMeF]VQWIANT-NH2
modifications: N-terminus assumed
SMILES: CC[C@H](C)[C@H](NC(=O)[C@H](Cc1c[nH]c2ccccc12)NC(=O)[C@H](CCC(N)=O)NC(=O)[C@@H](NC(=O)[C@](C)(Cc1ccccc1)NC(=O)[C@H](CC(=O)O)NC(=O)[C@H](CCCCNC(=O)COCCOCCNC(=O)COCCOCCNC(=O)CC[C@H](NC(=O)CCCCCCCCCCCCCCCCCCC(=O)O)C(=O)O)NC(=O)[C@H](C)NC(=O)[C@H](C)NC(=O)[C@H](CCCNC(=N)N)NC(=O)[C@H](CO)NC(=O)[C@H](CC(=O)O)NC(=O)[C@H](CC(C)C)NC(=O)[C@](C)(Cc1ccccc1)NC(=O)[C@H](CCCCN)NC(=O)[C@H](CO)NC(=O)[C@@H](NC(=O)[C@H](CC(=O)O)NC(=O)[C@H](CO)NC(=O)[C@@H](NC(=O)[C@](C)(Cc1ccccc1)NC(=O)[C@H](CO)NC(=O)CNC(=O)[C@H](Cc1c[nH]cn1)NC(=O)C(C)(C)NC(=O)[C@@H](N)Cc1c[nH]cn1)[C@@H](C)O)C(C)C)C(C)C)C(=O)N[C@@H](C)C(=O)N[C@@H](CC(N)=O)C(=O)N[C@H](C(N)=O)[C@@H](C)O

Target: human GLP-1 receptor (human, UniProt P43220 24-463)
Assay: cell-based or functional assay

hGLP-1R EC50 (pM), cAMP [pM] | Binder
69.5 | H[Aib]HGS[αMeF]TSDVSK[αMeF]LDSRAAK([(PEG)2-(PEG)2-γGlu-γGlu-C20 diacid])D[αMeF]VQ[Aib]IANT-NH2 [Peptide 264]
70.5 | H[Aib]HGS[αMeF]TSDVSK[αMeF]LDSRAAK([AEEA-AEEA-γGlu-C18 diacid])D[αMeF]VE[Aib]IANT-NH2 [Peptide 227]
346 | H[Aib]HGS[αMeF]TSDVSK[αMeF]LDSQAAK([AEEA-AEEA-γGlu-γGlu-C20 diacid])D[αMeF]VQ[Aib]IANT-NH2 [Peptide 256]
19.1 | H[Aib]HGS[αMeF]TSDVSK[αMeF]LDSRAAK([AEEA-γGlu-AEEA-C18 diacid])D[αMeF]VQ[Aib]IANT-NH2 [Peptide 259]
601 | H[Aib]HGS[αMeF]TSDVSK[αMeF]LDSR[Aib]AK([AEEA-AEEA-γGlu-γGlu-C18 diacid])D[αMeF]VESIANT-NH2 [Peptide 250]
66.5 | H[Aib]HGS[αMeF]TSDVSK[αMeF]LDSRAAK([AEEA-γGlu-AEEA-γGlu-C20 diacid])D[αMeF]VQ[Aib]IANT-NH2 [Peptide 266]
320 | B1
13 | H[Aib]HGS[αMeF]TSDVSK[αMeF]LDSRAAK([AEEA-γGlu-C18 diacid])D[αMeF]VQ[Aib]IANT-NH2 [Peptide 262]
75.5 | H[Aib]HGS[αMeF]TSDVSK[αMeF]LDSR[Aib]AK([AEEA-γGlu-C18 diacid])DFVESIANT-NH2 [Peptide 253]
33.1 | H[Aib]HGS[αMeF]TSDVSK[αMeF]LDSRAAK([AEEA-γGlu-AEEA-γGlu-C18 diacid])D[αMeF]VQ[Aib]IANT-NH2 [Peptide 260]
119 | H[Aib]HGS[αMeF]TSDVSK[αMeF]LDSR[Aib]AK([AEEA-AEEA-γGlu-C20 diacid])DFVESIANT-NH2 [Peptide 252]
16.2 | B2
34.9 | B3
79.8 | H[Aib]HGS[αMeF]TSDVSK[αMeF]LDSR[Aib]AK([AEEA-AEEA-γGlu-C18 diacid])DFVESIANT-NH2 (not fully specified) [Peptide 251]
102 | H[Aib]HGS[αMeF]TSDVSK[αMeF]LDSR[Aib]AK([γGlu-C18 diacid])DFVESIANT-NH2 [Peptide 254]
71.2 | H[Aib]HGS[αMeF]TSDVSK[αMeF]LDSRAAK([AEEA-γGlu-AEEA-C20 diacid])D[αMeF]VQ[Aib]IANT-NH2 [Peptide 265]
122 | H[Aib]HGS[αMeF]TSDVSK[αMeF]LDSR[Aib]AK([AEEA-AEEA-γGlu-γGlu-C20 diacid])DFVQ[Aib]IANT-NH2 (not fully specified) [Peptide 221]
34 | H[Aib]HGS[αMeF]TSDVSK[αMeF]LDSRAAK([(PEG)2-(PEG)2-γGlu-γGlu-C18 diacid])D[αMeF]VQ[Aib]IANT-NH2 [Peptide 258]
7620 | B4
25.4 | H[Aib]HGS[αMeF]TSDVSK[αMeF]LDSRAAK([PEG4-γGlu-γGlu-C18 diacid])D[αMeF]VQ[Aib]IANT-NH2 [Peptide 263]
143 | H[Aib]HGS[αMeF]TSDVSK[αMeF]LDSRAAK([AEEA-AEEA-γGlu-γGlu-C20 diacid])D[αMeF]VQSIANT-NH2 (not fully specified) [Peptide 244]

Target: human glucagon receptor (human, UniProt P47871 26-477)
Sequence (P47871 26-477): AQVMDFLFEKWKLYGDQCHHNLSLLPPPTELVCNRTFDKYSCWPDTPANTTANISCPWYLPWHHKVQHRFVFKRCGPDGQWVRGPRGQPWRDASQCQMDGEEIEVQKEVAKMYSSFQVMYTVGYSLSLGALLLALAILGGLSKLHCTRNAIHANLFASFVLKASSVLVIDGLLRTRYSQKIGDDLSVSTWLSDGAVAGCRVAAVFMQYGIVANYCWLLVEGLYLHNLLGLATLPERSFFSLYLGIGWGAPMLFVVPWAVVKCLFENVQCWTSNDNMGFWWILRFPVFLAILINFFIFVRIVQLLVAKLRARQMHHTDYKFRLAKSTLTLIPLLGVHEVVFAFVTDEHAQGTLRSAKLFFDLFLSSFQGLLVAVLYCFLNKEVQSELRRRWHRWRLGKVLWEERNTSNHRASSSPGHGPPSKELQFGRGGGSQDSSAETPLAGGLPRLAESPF
Assay: cell-based or functional assay

hGluc-R EC50 (pM), cAMP [pM] | Binder
297 | H[Aib]HGS[αMeF]TSDVSK[αMeF]LDSRAAK([(PEG)2-(PEG)2-γGlu-γGlu-C20 diacid])D[αMeF]VQ[Aib]IANT-NH2 [Peptide 264]
27.2 | H[Aib]HGS[αMeF]TSDVSK[αMeF]LDSRAAK([AEEA-AEEA-γGlu-C18 diacid])D[αMeF]VE[Aib]IANT-NH2 [Peptide 227]
1310 | H[Aib]HGS[αMeF]TSDVSK[αMeF]LDSQAAK([AEEA-AEEA-γGlu-γGlu-C20 diacid])D[αMeF]VQ[Aib]IANT-NH2 [Peptide 256]
34.8 | H[Aib]HGS[αMeF]TSDVSK[αMeF]LDSRAAK([AEEA-γGlu-AEEA-C18 diacid])D[αMeF]VQ[Aib]IANT-NH2 [Peptide 259]
1570 | H[Aib]HGS[αMeF]TSDVSK[αMeF]LDSR[Aib]AK([AEEA-AEEA-γGlu-γGlu-C18 diacid])D[αMeF]VESIANT-NH2 [Peptide 250]
293 | H[Aib]HGS[αMeF]TSDVSK[αMeF]LDSRAAK([AEEA-γGlu-AEEA-γGlu-C20 diacid])D[αMeF]VQ[Aib]IANT-NH2 [Peptide 266]
557 | B1
11.7 | H[Aib]HGS[αMeF]TSDVSK[αMeF]LDSRAAK([AEEA-γGlu-C18 diacid])D[αMeF]VQ[Aib]IANT-NH2 [Peptide 262]
53.1 | H[Aib]HGS[αMeF]TSDVSK[αMeF]LDSR[Aib]AK([AEEA-γGlu-C18 diacid])DFVESIANT-NH2 [Peptide 253]
76.9 | H[Aib]HGS[αMeF]TSDVSK[αMeF]LDSRAAK([AEEA-γGlu-AEEA-γGlu-C18 diacid])D[αMeF]VQ[Aib]IANT-NH2 [Peptide 260]
1310 | H[Aib]HGS[αMeF]TSDVSK[αMeF]LDSR[Aib]AK([AEEA-AEEA-γGlu-C20 diacid])DFVESIANT-NH2 [Peptide 252]
29.4 | B2
145 | B3
248 | H[Aib]HGS[αMeF]TSDVSK[αMeF]LDSR[Aib]AK([AEEA-AEEA-γGlu-C18 diacid])DFVESIANT-NH2 (not fully specified) [Peptide 251]
125 | H[Aib]HGS[αMeF]TSDVSK[αMeF]LDSR[Aib]AK([γGlu-C18 diacid])DFVESIANT-NH2 [Peptide 254]
131 | H[Aib]HGS[αMeF]TSDVSK[αMeF]LDSRAAK([AEEA-γGlu-AEEA-C20 diacid])D[αMeF]VQ[Aib]IANT-NH2 [Peptide 265]
123 | H[Aib]HGS[αMeF]TSDVSK[αMeF]LDSR[Aib]AK([AEEA-AEEA-γGlu-γGlu-C20 diacid])DFVQ[Aib]IANT-NH2 (not fully specified) [Peptide 221]
93.1 | H[Aib]HGS[αMeF]TSDVSK[αMeF]LDSRAAK([(PEG)2-(PEG)2-γGlu-γGlu-C18 diacid])D[αMeF]VQ[Aib]IANT-NH2 [Peptide 258]
2610 | B4
64.6 | H[Aib]HGS[αMeF]TSDVSK[αMeF]LDSRAAK([PEG4-γGlu-γGlu-C18 diacid])D[αMeF]VQ[Aib]IANT-NH2 [Peptide 263]
420 | H[Aib]HGS[αMeF]TSDVSK[αMeF]LDSRAAK([AEEA-AEEA-γGlu-γGlu-C20 diacid])D[αMeF]VQSIANT-NH2 (not fully specified) [Peptide 244]
